Data on one protein can be found in paper PMC3308208, “Disassembly and reassembly of human papillomavirus virus-like particles produces more virion-like antibody reactivity” (Virology Journal, 2012).

This data set deals with the molecule itself. In words: cryo-EM imaging; post-D/R HPV16 VLPs, undiluted, in vitrified ice on holey carbon films; Tecnai F20 at 120 keV.

B1: HPV16 L1 virus-like particles (VLPs) (natural protein)
chain: MSLWLPSEATVYLPPVPVSKVVSTDEYVARTNIYYHAGTSRLLAVGHPYFPIKKPNNNKILVPKVSGLQYRVFRIHLPDPNKFGFPDTSFYNPDTQRLVWACVGVEVGRGQPLGVGISGHPLLNKLDDTENASAYAANAGVDNRECISMDYKQTQLCLIGCKPPIGEHWGKGSPCTNVAVNPGDCPPLELINTVIQDGDMVDTGFGAMDFTTLQANKSEVPLDICTSICKYPDYIKMVSEPYGDSLFFYLRREQMFVRHLFNRAGAVGENVPDDLYIKGSGSTANLASSNYFPTPSGSMVTSDAQIFNKPYWLQRAQGHNNGICWGNQLFVTVVDTTRSTNMSLCAAISTSETTYKNTNFKEYLRHGEEYDLQFIFQLCKITLTADVMTYIHSMNSTILEDWNFGLQPPPGGTLEDTYRFVTSQAIACQKHTPPAPKEDPLKKYTFWEVNLKEKFSADLDQFPLGRKFLLQAGLKAKPKFTLGKRKATPTTSSTSTTAKRKKRKL
notes: major capsid protein L1 of human papillomavirus type 16, full length, self-assembled into VLPs; The same L1 protein was tested as pre-D/R VLPs (purified only) and as post-D/R VLPs (disassembled and reassembled); The T = 7 count of 360 copies is stated only in the background; also called HPV 16 L1 VLPs; post-D/R VLPs; source: over expressed in yeast, purified VLPs; post-D/R lots after disassembly …
With B1, the binding result is “binds”.
